# Laboratory results as given in patent publication US20200377595A1 (Chugai, published 2020).
# Where “and” joins values, the source holds several entries; their conditions need not be identical. Equal entries are not always repeated.
# Target: T1, biotin labeled human IgG1 Fc (human, UniProt P01857-1 104-330 = IgG part, limits assumed, biotin-labeled)
# T1 construct: domain: Fc region; control antigen; also called human Fc
# Experiment: bead ELISA, IgG
# Experimental: First, 20 micro g of Streptavidin-coated magnetic beads MyOne-T1 beads was washed three-times with blocking buffer including 0.5× block Ace, 0.02% Tween and 0.05% ProClin 300 and then blocked with this blocking buffer at room temperature for 60 minutes or more. […] After that each well was washed with TBST. […] The plate was incubated for one hour. […] 2 minutes later the fluorescence of each well was detected.
row,RLU [RLU],Binder
1,1760,"DADU01_3#001 (antibody, IgG1, V domains shown, IgG1; also called dBBDu_126; dBBDu126) VH: QVQLVESGGGLVQPGRSLRLSCAASGFTFSIAWMHWVRQAPGKGLEWVAQIKDRVNAYEAYYAPSVKGRFTISRDDSKNSIYLQMNSLKTEDTAVYYCRYVHYASYYDLLGYGGVDAWGQGTTVTVSS VL: DIVMTQSPLSLPVTPGEPASISCRSSQSLVHSNRNTYLHWYQQKPGQAPRLLIYKVSNRFSGVPDRFSGSGSGTDFTLKISRVEAEDVGVYYCGQGTQVPYTFGQGTKLEIK"
2,1920,"DADU01_3#002 (antibody, IgG1, V domains shown, IgG1; also called dBBDu124) VH: QVQLVESGGGLVQPGRSLRLSCAASGFTFSNAWMHWVRQAPGKGLEWVAQIKDKQNLYNAYYAESVKGRFTISRDDSKNSIYLQMNSLKTEDTAVYYCHYVHYASASTVLPAFGVDAWGQGTTVTVSS VL: DIVMTQSPLSLPVTPGEPASISCRSSQSLVHSNRNTYLHWYQQKPGQAPRLLIYKVSNRFSGVPDRFSGSGSGTDFTLKISRVEAEDVGVYYCGQGTQVPYTFGQGTKLEIK"
3,2370,"DXDU01_3#094 (antibody, IgG1, V domains shown, IgG1; also called dBBDu121) VH: QVQLVESGGGLVQPGRSLRLSCAASGFTFSNAWMHWVRQAPGKGLEWVAQIKDKGNAYAAYYAPSVKGRFTISRDDSKNSIYLQMNSLKTEDTAVYYCHYVHYASAAGGLPGFGVDAWGQGTTVTVSS VL: DIVMTQSPLSLPVTPGEPASISCRSSQSLVHSNRNTYLHWYQQKPGQAPRLLIYKVSNRFSGVPDRFSGSGSGTDFTLKISRVEAEDVGVYYCGQGTQVPYTFGQGTKLEIK"
4,1900,"DADU01_3#018 (antibody, IgG1, V domains shown, IgG1; also called dBBDu123) VH: QVQLVESGGGLVQPGRSLRLSCAASGFTFSNAWMHWVRQAPGKGLEWVAQIKDRANSYNAYYAPSVKGRFTISRDDSKNSIYLQMNSLKTEDTAVYYCHYVHYSAASTLLPSFGVDAWGQGTTVTVSS VL: DIVMTQSPLSLPVTPGEPASISCRSSQSLVHSNRNTYLHWYQQKPGQAPRLLIYKVSNRFSGVPDRFSGSGSGTDFTLKISRVEAEDVGVYYCGQGTQVPYTFGQGTKLEIK"
5,3260,"DXDU01_3#019 (antibody, IgG1, V domains shown, IgG1; also called dBBDu125) VH: QVQLVESGGGLVQPGRSLRLSCAASGFTFSIAWMHWVRQAPGKGLEWVAQIKDKVNGYTAYYAESVKGRFTISRDDSKNSIYLQMNSLKTEDTAVYYCRYVHYAAYYDVLGYGGVDAWGQGTTVTVSS VL: DIVMTQSPLSLPVTPGEPASISCRSSQSLVHSNRNTYLHWYQQKPGQAPRLLIYKVSNRFSGVPDRFSGSGSGTDFTLKISRVEAEDVGVYYCGQGTQVPYTFGQGTKLEIK"
6,2910,"DXDU01_3#051 (antibody, IgG1, V domains shown, IgG1; also called dBBDu127) VH: QVQLVESGGGLVQPGRSLRLSCAASGFTFSNAWMHWVRQAPGKGLEWVAQIKDRGQQYNAYYAPSVKGRFTISRDDSKNSIYLQMNSLKTEDTAVYYCHYVHYASASSVLPGYGVDAWGQGTTVTVSS VL: DIVMTQSPLSLPVTPGEPASISCRSSQSLVHSNRNTYLHWYQQKPGQAPRLLIYKVSNRFSGVPDRFSGSGSGTDFTLKISRVEAEDVGVYYCGQGTQVPYTFGQGTKLEIK"

# Target: biotinylated CD3 epsilon epitope peptide
# Experiment: SPR, method of Ref. Ex. 3, one-arm Ab
row,Kd,Binder
1,43.9 nM and 35.4 nM,"CE115HA000 V11L/D72A/L78I/D101Q with GGSGGSGGS inserted between Kabat 99 and 100, one-arm antibody (antibody) chain 1: QVQLVESGGGLVQPGRSLRLSCAASGFTFSNAWMHWVRQAPGKGLEWVAQIKAKSNNYATYYAESVKGRFTISRADSKNSIYLQMNSLKTEDTAVYYCRYVHYGAGGSGGSGGSYYGVQAWGQGTTVTVSSASTKGPSVFPLAPSSKSTSGGTAALGCLVKDYFPEPVTVSWNSGALTSGVHTFPAVLQSSGLYSLSSVVTVPSSSLGTQTYICNVNHKPSNTKVDKKVEPKSCDKTHTCPPCPAPEAAGGPSVFLFPPKPKDTLMISRTPEVTCVVVDVSHEDPEVKFNWYVDGVEVHNAKTKPREEQYASTYRVVSVLTVLHQDWLNGKEYKCKVSNKALPAPIEKTISKAKGQPREPQVYTLPPSRCELTKNQVSLSCAVKGFYPSDIAVEWESNGQPENNYKTTPPVLDSDGSFFLVSKLTVDKSRWQQGNVFSCSVMHEALHNHYTQKSLSLSPDYKDDDDK chain 2: EPKSSDKTHTCPPCPAPELLGGPSVFLFPPKPKDTLMISRTPEVTCVVVDVSHEDPEVKFNWYVDGVEVHNAKTKPREEQYNSTYRVVSVLTVLHQDWLNGKEYKCKVSNKALPAPIEKTISKAKGQPREPQVCTLPPSRDELTKNQVSLWCLVKGFYPSDIAVEWESNGQPENNYKTTPPVLDSDGSFFLYSKLTVDKSRWQQGNVFSCSVMHEALHNRYTQKSLSLSP chain 3: DIVMTQSPLSLPVTPGEPASISCRSSQSLVHSNRNTYLHWYQQKPGQAPRLLIYKVSNRFSGVPDRFSGSGSGTDFTLKISRVEAEDVGVYYCGQGTQVPYTFGQGTKLEIKRTVAAPSVFIFPPSDEQLKSGTASVVCLLNNFYPREAKVQWKVDNALQSGNSQESVTEQDSKDSTYSLSSTLTLSKADYEKHKVYACEVTHQGLSSPVTKSFNRGEC"
2,6.96 nM,"CE115HA000 V11L/D72A/L78I/D101Q without insertion, one-arm antibody (antibody, human IgG1, kappa, L234A L235A, N297A, name in Kabat numbering, one-arm antibody; 'No insertion' read as the altered H chain without linker; also called No insertion) heavy: QVQLVESGGGLVQPGRSLRLSCAASGFTFSNAWMHWVRQAPGKGLEWVAQIKAKSNNYATYYAESVKGRFTISRADSKNSIYLQMNSLKTEDTAVYYCRYVHYGAYYGVQAWGQGTTVTVSSASTKGPSVFPLAPSSKSTSGGTAALGCLVKDYFPEPVTVSWNSGALTSGVHTFPAVLQSSGLYSLSSVVTVPSSSLGTQTYICNVNHKPSNTKVDKKVEPKSCDKTHTCPPCPAPEAAGGPSVFLFPPKPKDTLMISRTPEVTCVVVDVSHEDPEVKFNWYVDGVEVHNAKTKPREEQYASTYRVVSVLTVLHQDWLNGKEYKCKVSNKALPAPIEKTISKAKGQPREPQVYTLPPSRCELTKNQVSLSCAVKGFYPSDIAVEWESNGQPENNYKTTPPVLDSDGSFFLVSKLTVDKSRWQQGNVFSCSVMHEALHNHYTQKSLSLSPDYKDDDDK EPKSSDKTHTCPPCPAPELLGGPSVFLFPPKPKDTLMISRTPEVTCVVVDVSHEDPEVKFNWYVDGVEVHNAKTKPREEQYNSTYRVVSVLTVLHQDWLNGKEYKCKVSNKALPAPIEKTISKAKGQPREPQVCTLPPSRDELTKNQVSLWCLVKGFYPSDIAVEWESNGQPENNYKTTPPVLDSDGSFFLYSKLTVDKSRWQQGNVFSCSVMHEALHNRYTQKSLSLSP light: DIVMTQSPLSLPVTPGEPASISCRSSQSLVHSNRNTYLHWYQQKPGQAPRLLIYKVSNRFSGVPDRFSGSGSGTDFTLKISRVEAEDVGVYYCGQGTQVPYTFGQGTKLEIKRTVAAPSVFIFPPSDEQLKSGTASVVCLLNNFYPREAKVQWKVDNALQSGNSQESVTEQDSKDSTYSLSSTLTLSKADYEKHKVYACEVTHQGLSSPVTKSFNRGEC"
3,110 nM,"CE115HA000 one-arm antibody (antibody, human IgG1, kappa, L234A L235A, N297A, one-arm antibody) heavy: QVQLVESGGGVVQPGRSLRLSCAASGFTFSNAWMHWVRQAPGKGLEWVAQIKAKSNNYATYYAESVKGRFTISRDDSKNSLYLQMNSLKTEDTAVYYCRYVHYGAYYGVDAWGQGTTVTVSSASTKGPSVFPLAPSSKSTSGGTAALGCLVKDYFPEPVTVSWNSGALTSGVHTFPAVLQSSGLYSLSSVVTVPSSSLGTQTYICNVNHKPSNTKVDKKVEPKSCDKTHTCPPCPAPEAAGGPSVFLFPPKPKDTLMISRTPEVTCVVVDVSHEDPEVKFNWYVDGVEVHNAKTKPREEQYASTYRVVSVLTVLHQDWLNGKEYKCKVSNKALPAPIEKTISKAKGQPREPQVYTLPPSRCELTKNQVSLSCAVKGFYPSDIAVEWESNGQPENNYKTTPPVLDSDGSFFLVSKLTVDKSRWQQGNVFSCSVMHEALHNHYTQKSLSLSPDYKDDDDK EPKSSDKTHTCPPCPAPELLGGPSVFLFPPKPKDTLMISRTPEVTCVVVDVSHEDPEVKFNWYVDGVEVHNAKTKPREEQYNSTYRVVSVLTVLHQDWLNGKEYKCKVSNKALPAPIEKTISKAKGQPREPQVCTLPPSRDELTKNQVSLWCLVKGFYPSDIAVEWESNGQPENNYKTTPPVLDSDGSFFLYSKLTVDKSRWQQGNVFSCSVMHEALHNRYTQKSLSLSP light: DIVMTQSPLSLPVTPGEPASISCRSSQSLVHSNRNTYLHWYQQKPGQAPRLLIYKVSNRFSGVPDRFSGSGSGTDFTLKISRVEAEDVGVYYCGQGTQVPYTFGQGTKLEIKRTVAAPSVFIFPPSDEQLKSGTASVVCLLNNFYPREAKVQWKVDNALQSGNSQESVTEQDSKDSTYSLSSTLTLSKADYEKHKVYACEVTHQGLSSPVTKSFNRGEC"
